The target of data set [1] is IKZF1 (Ikaros), recombinant;c-JUN, recombinant;c-FOS, recombinant (Homo sapiens;Homo sapiens;Homo sapiens, UniProt Q13422;P05412;P01100 1-519;1-331;1-380, ||). As to the kind of experiment: EMSA; 300 ng AP1 + 1 ug IKZF1; stronger than AP1 alone; EMSA per LI-COR kit protocol (829-07910), 100 nM IR700 probe, 4-12% TBE gel in 0.5x TBE; binding buffer, pH and temperature not stated. Particulars: protein: commercial;commercial;commercial; tags: ;;; label: IRDye 700.

Data set [2] has as its target c-JUN, recombinant;c-FOS, recombinant (Homo sapiens;Homo sapiens, UniProt P05412;P01100 1-331;1-380, |). Briefly: EMSA; 300 ng AP1; EMSA per LI-COR kit protocol (829-07910), 100 nM IR700 probe, 4-12% TBE gel in 0.5x TBE; binding buffer, pH and temperature not stated. Conditions: protein: commercial;commercial; tags: ;; copies: 1;1; label: IRDye 700.

Chain of IKZF1 (Ikaros), recombinant;c-JUN, recombinant;c-FOS, recombinant (Q13422 whole entry, chain 1 of 3): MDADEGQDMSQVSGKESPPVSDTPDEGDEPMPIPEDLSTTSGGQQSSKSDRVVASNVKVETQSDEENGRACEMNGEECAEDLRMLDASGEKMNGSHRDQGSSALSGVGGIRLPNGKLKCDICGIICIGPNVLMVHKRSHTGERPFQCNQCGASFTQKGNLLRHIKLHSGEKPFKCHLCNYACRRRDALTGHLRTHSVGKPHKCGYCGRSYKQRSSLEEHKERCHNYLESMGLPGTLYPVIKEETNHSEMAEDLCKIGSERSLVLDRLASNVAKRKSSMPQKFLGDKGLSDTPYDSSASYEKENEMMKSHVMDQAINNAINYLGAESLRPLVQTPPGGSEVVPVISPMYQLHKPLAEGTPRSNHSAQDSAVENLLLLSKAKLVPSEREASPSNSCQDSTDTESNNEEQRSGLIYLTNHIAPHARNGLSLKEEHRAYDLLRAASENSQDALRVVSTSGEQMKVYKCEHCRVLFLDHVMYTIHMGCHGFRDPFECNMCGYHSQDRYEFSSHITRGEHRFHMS
Chain of IKZF1 (Ikaros), recombinant;c-JUN, recombinant;c-FOS, recombinant (P05412 whole entry, chain 2 of 3): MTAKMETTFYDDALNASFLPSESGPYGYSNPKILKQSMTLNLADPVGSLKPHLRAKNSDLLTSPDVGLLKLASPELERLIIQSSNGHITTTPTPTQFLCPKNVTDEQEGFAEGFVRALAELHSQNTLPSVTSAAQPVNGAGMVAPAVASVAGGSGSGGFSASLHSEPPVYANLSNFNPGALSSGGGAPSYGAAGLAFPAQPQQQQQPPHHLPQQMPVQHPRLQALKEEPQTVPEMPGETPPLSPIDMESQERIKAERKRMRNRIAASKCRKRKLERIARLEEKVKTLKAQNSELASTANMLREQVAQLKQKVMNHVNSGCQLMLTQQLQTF
Chain of IKZF1 (Ikaros), recombinant;c-JUN, recombinant;c-FOS, recombinant (P01100 whole entry, chain 3 of 3): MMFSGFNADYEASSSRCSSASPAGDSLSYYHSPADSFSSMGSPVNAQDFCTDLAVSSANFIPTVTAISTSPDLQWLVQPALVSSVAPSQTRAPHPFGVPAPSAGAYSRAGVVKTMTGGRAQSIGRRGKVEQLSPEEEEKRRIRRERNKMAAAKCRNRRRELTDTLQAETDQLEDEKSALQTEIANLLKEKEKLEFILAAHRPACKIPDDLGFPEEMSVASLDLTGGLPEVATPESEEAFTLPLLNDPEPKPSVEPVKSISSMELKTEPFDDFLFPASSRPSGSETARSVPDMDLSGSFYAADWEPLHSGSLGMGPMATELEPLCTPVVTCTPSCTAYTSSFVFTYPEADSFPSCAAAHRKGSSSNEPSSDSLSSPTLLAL
Chain of c-JUN, recombinant;c-FOS, recombinant (P05412 whole entry, chain 1 of 2): as the sequence (P05412 whole entry, chain 2 of 3) above
Chain of c-JUN, recombinant;c-FOS, recombinant (P01100 whole entry, chain 2 of 2): as the sequence (P01100 whole entry, chain 3 of 3) above

B1: IL10 CNS9 WT probe (dsDNA)
DNA 1: GAGGTTGCAGTTTCGTTGTGAGTCAGGCCTGCTGA
DNA 2: TCAGCAGGCCTGACTCACAACGAAACTGCAACCTC
Turning to B1, the binding result in data set [1] and in data set [2] was “binds” in each case.

For the origin of these results see paper PMC11717359, “A new pipeline SPICE identifies novel JUN-IKZF1 composite elements”.
